Test results as given in PMC12102759 (2025).

B1: MXI1 peptide 6-21 (Max-interacting protein 1), 16-mer library wild type / SIN3A PAH2 (SIN3A PAH domain, residues 295-383) (parent complex)
chain 1: MINVQRLLEAAEFLER
chain 2: SLQNNQPVEFNHAINYVNKIKNRFQGQPDIYKAFLEILHTYQKEQRNAKEAGGNYTPALTEQEVYAQVARLFKNQEDLLSEFGQFLPDA
B2: PEX5 peptide 110-125 (Peroxisomal targeting signal 1 receptor), 16-mer library wild type / PEX14 Pex14 (PEX14 PEX14, residues 16-84) (parent complex)
chain 1: ADLALSENWAQEFLAA
chain 2: TPGSENVLPREPLIATAVKFLQNSRVRQSPLATRRAFLKKKGLTDEEIDMAFQQSGTAADEPSSLGPAT

Variants of: B1
Assay: proteomic peptide phage display deep mutational scan (ProP-PD DMS): M13 P8 16-mer library selected against immobilised GST-tagged bait for four days (rounds), NGS of the eluted pools per day and pseudo-replica; bait immobilised on MaxiSorp plates (10 µg), library pre-cleared on GST, 2 h binding at 4 °C, five washes; one round per day, days 1-4; value from days 2 and 3

| Variant | screen value |
| --- | --- |
| chain 1 E12R | 0.00176 average fractional NGS count over selection days 2 and 3 (reads of this peptide / all reads for the bait, averaged over … |
| chain 1 E12I | 0.000347 average fractional NGS count over selection days 2 and 3 (reads of this peptide / all reads for the bait, averaged over … |
| chain 1 E12W | 9.8e-05 average fractional NGS count over selection days 2 and 3 (reads of this peptide / all reads for the bait, averaged over … |
| chain 1 E12K | 0.00174 average fractional NGS count over selection days 2 and 3 (reads of this peptide / all reads for the bait, averaged over … |
| chain 1 E12Q | 0.00319 average fractional NGS count over selection days 2 and 3 (reads of this peptide / all reads for the bait, averaged over … |
| chain 1 E12T | 0.000504 average fractional NGS count over selection days 2 and 3 (reads of this peptide / all reads for the bait, averaged over … |
| chain 1 E12F | 0.0145 average fractional NGS count over selection days 2 and 3 (reads of this peptide / all reads for the bait, averaged over … |
| chain 1 E12H | 0.00554 average fractional NGS count over selection days 2 and 3 (reads of this peptide / all reads for the bait, averaged over … |
| chain 1 E12V | 0.000221 average fractional NGS count over selection days 2 and 3 (reads of this peptide / all reads for the bait, averaged over … |
| chain 1 E12L | 0.0769 average fractional NGS count over selection days 2 and 3 (reads of this peptide / all reads for the bait, averaged over … |
| chain 1 E12S | 0.000265 average fractional NGS count over selection days 2 and 3 (reads of this peptide / all reads for the bait, averaged over … |
| chain 1 A11Q | 0.000778 average fractional NGS count over selection days 2 and 3 (reads of this peptide / all reads for the bait, averaged over … |
| chain 1 A11F | 0.000474 average fractional NGS count over selection days 2 and 3 (reads of this peptide / all reads for the bait, averaged over … |
| chain 1 A11E | 0.000155 average fractional NGS count over selection days 2 and 3 (reads of this peptide / all reads for the bait, averaged over … |
| chain 1 A11L | 0.000741 average fractional NGS count over selection days 2 and 3 (reads of this peptide / all reads for the bait, averaged over … |
| chain 1 A11W | 0.00145 average fractional NGS count over selection days 2 and 3 (reads of this peptide / all reads for the bait, averaged over … |
| chain 1 A11I | 0.000346 average fractional NGS count over selection days 2 and 3 (reads of this peptide / all reads for the bait, averaged over … |
| chain 1 A11H | 0.000274 average fractional NGS count over selection days 2 and 3 (reads of this peptide / all reads for the bait, averaged over … |
| chain 1 A11N | 0.000651 average fractional NGS count over selection days 2 and 3 (reads of this peptide / all reads for the bait, averaged over … |
| chain 1 A11M | 0.00708 average fractional NGS count over selection days 2 and 3 (reads of this peptide / all reads for the bait, averaged over … |
| chain 1 A11G | 0.000249 average fractional NGS count over selection days 2 and 3 (reads of this peptide / all reads for the bait, averaged over … |
| chain 1 R6G | 0.000834 average fractional NGS count over selection days 2 and 3 (reads of this peptide / all reads for the bait, averaged over … |

| Variant | screen value |
| --- | --- |
| chain 1 R6W | 0.0159 average fractional NGS count over selection days 2 and 3 (reads of this peptide / all reads for the bait, averaged over … |
| chain 1 R6A | 0.00198 average fractional NGS count over selection days 2 and 3 (reads of this peptide / all reads for the bait, averaged over … |
| chain 1 R6V | 0.000218 average fractional NGS count over selection days 2 and 3 (reads of this peptide / all reads for the bait, averaged over … |
| chain 1 R6Y | 0.00232 average fractional NGS count over selection days 2 and 3 (reads of this peptide / all reads for the bait, averaged over … |
| chain 1 R6S | 0.00011 average fractional NGS count over selection days 2 and 3 (reads of this peptide / all reads for the bait, averaged over … |
| chain 1 L7Y | 0.00109 average fractional NGS count over selection days 2 and 3 (reads of this peptide / all reads for the bait, averaged over … |
| chain 1 L7F | 0.000853 average fractional NGS count over selection days 2 and 3 (reads of this peptide / all reads for the bait, averaged over … |
| chain 1 L7W | 0.00101 average fractional NGS count over selection days 2 and 3 (reads of this peptide / all reads for the bait, averaged over … |
| chain 1 L8M | 0.000134 average fractional NGS count over selection days 2 and 3 (reads of this peptide / all reads for the bait, averaged over … |
| chain 1 L8S | 0.000473 average fractional NGS count over selection days 2 and 3 (reads of this peptide / all reads for the bait, averaged over … |
| chain 1 L8V | 0.000127 average fractional NGS count over selection days 2 and 3 (reads of this peptide / all reads for the bait, averaged over … |
| chain 1 L8H | 0.000323 average fractional NGS count over selection days 2 and 3 (reads of this peptide / all reads for the bait, averaged over … |
| chain 1 L8T | 0.000156 average fractional NGS count over selection days 2 and 3 (reads of this peptide / all reads for the bait, averaged over … |
| chain 1 L8Q | 0.000344 average fractional NGS count over selection days 2 and 3 (reads of this peptide / all reads for the bait, averaged over … |
| chain 1 L8G | 0.000132 average fractional NGS count over selection days 2 and 3 (reads of this peptide / all reads for the bait, averaged over … |
| chain 1 L8Y | 0.000651 average fractional NGS count over selection days 2 and 3 (reads of this peptide / all reads for the bait, averaged over … |
| chain 1 N3H | 0.000207 average fractional NGS count over selection days 2 and 3 (reads of this peptide / all reads for the bait, averaged over … |
| chain 1 N3K | 0.000249 average fractional NGS count over selection days 2 and 3 (reads of this peptide / all reads for the bait, averaged over … |
| chain 1 N3W | 0.000465 average fractional NGS count over selection days 2 and 3 (reads of this peptide / all reads for the bait, averaged over … |
| chain 1 N3T | 0.00466 average fractional NGS count over selection days 2 and 3 (reads of this peptide / all reads for the bait, averaged over … |
| chain 1 N3G | 0.00333 average fractional NGS count over selection days 2 and 3 (reads of this peptide / all reads for the bait, averaged over … |
| chain 1 N3P | 0.00138 average fractional NGS count over selection days 2 and 3 (reads of this peptide / all reads for the bait, averaged over … |

| Variant | screen value |
| --- | --- |
| chain 1 N3E | 0.000543 average fractional NGS count over selection days 2 and 3 (reads of this peptide / all reads for the bait, averaged over … |
| chain 1 N3L | 0.0228 average fractional NGS count over selection days 2 and 3 (reads of this peptide / all reads for the bait, averaged over … |
| chain 1 N3V | 0.000212 average fractional NGS count over selection days 2 and 3 (reads of this peptide / all reads for the bait, averaged over … |
| chain 1 N3M | 0.0121 average fractional NGS count over selection days 2 and 3 (reads of this peptide / all reads for the bait, averaged over … |
| chain 1 E15P | 0.000251 average fractional NGS count over selection days 2 and 3 (reads of this peptide / all reads for the bait, averaged over … |
| chain 1 E15G | 0.00623 average fractional NGS count over selection days 2 and 3 (reads of this peptide / all reads for the bait, averaged over … |
| chain 1 E15T | 0.119 average fractional NGS count over selection days 2 and 3 (reads of this peptide / all reads for the bait, averaged over … |
| chain 1 E15K | 0.000258 average fractional NGS count over selection days 2 and 3 (reads of this peptide / all reads for the bait, averaged over … |
| chain 1 E15Y | 0.0114 average fractional NGS count over selection days 2 and 3 (reads of this peptide / all reads for the bait, averaged over … |
| chain 1 E15W | 0.00827 average fractional NGS count over selection days 2 and 3 (reads of this peptide / all reads for the bait, averaged over … |
| chain 1 E15V | 0.0659 average fractional NGS count over selection days 2 and 3 (reads of this peptide / all reads for the bait, averaged over … |
| chain 1 E15L | 0.0492 average fractional NGS count over selection days 2 and 3 (reads of this peptide / all reads for the bait, averaged over … |
| chain 1 E15N | 0.000504 average fractional NGS count over selection days 2 and 3 (reads of this peptide / all reads for the bait, averaged over … |
| chain 1 E15R | 0.000127 average fractional NGS count over selection days 2 and 3 (reads of this peptide / all reads for the bait, averaged over … |
| chain 1 E15I | 0.0148 average fractional NGS count over selection days 2 and 3 (reads of this peptide / all reads for the bait, averaged over … |
| chain 1 E15H | 0.00272 average fractional NGS count over selection days 2 and 3 (reads of this peptide / all reads for the bait, averaged over … |
| chain 1 E15S | 0.0548 average fractional NGS count over selection days 2 and 3 (reads of this peptide / all reads for the bait, averaged over … |
| chain 1 E15F | 0.000557 average fractional NGS count over selection days 2 and 3 (reads of this peptide / all reads for the bait, averaged over … |
| chain 1 E15Q | 0.000842 average fractional NGS count over selection days 2 and 3 (reads of this peptide / all reads for the bait, averaged over … |
| chain 1 E15M | 8.82e-05 average fractional NGS count over selection days 2 and 3 (reads of this peptide / all reads for the bait, averaged over … |

Variants of: B2
Assay: as above

| Variant | screen value |
| --- | --- |
| chain 1 E7H | 0.00742 average fractional NGS count over selection days 2 and 3 (reads of this peptide / all reads for the bait, averaged over … |
| chain 1 L5Y | 0.00132 average fractional NGS count over selection days 2 and 3 (reads of this peptide / all reads for the bait, averaged over … |
| chain 1 L5A | 0.00106 average fractional NGS count over selection days 2 and 3 (reads of this peptide / all reads for the bait, averaged over … |
| chain 1 A4L | 0.000672 average fractional NGS count over selection days 2 and 3 (reads of this peptide / all reads for the bait, averaged over … |
| chain 1 L3P | 0.00046 average fractional NGS count over selection days 2 and 3 (reads of this peptide / all reads for the bait, averaged over … |
| chain 1 L3F | 0.000885 average fractional NGS count over selection days 2 and 3 (reads of this peptide / all reads for the bait, averaged over … |
| chain 1 D2H | 0.004 average fractional NGS count over selection days 2 and 3 (reads of this peptide / all reads for the bait, averaged over … |
| chain 1 D2E | 0.000736 average fractional NGS count over selection days 2 and 3 (reads of this peptide / all reads for the bait, averaged over … |
| chain 1 F13W | 0.000735 average fractional NGS count over selection days 2 and 3 (reads of this peptide / all reads for the bait, averaged over … |
| chain 1 A1P | 0.000566 average fractional NGS count over selection days 2 and 3 (reads of this peptide / all reads for the bait, averaged over … |
| chain 1 A15W | 0.00189 average fractional NGS count over selection days 2 and 3 (reads of this peptide / all reads for the bait, averaged over … |
